The values that follow come from article PMC2112603 (The Journal of Cell Biology, 1983).

This assay concerns the target F-actin from chicken breast muscle (chicken, UniProt P68139 1-377). Description: co-sedimentation.

B1: 110-kdalton protein-calmodulin complex (complex)
chain 1: MEATTSLLDAAAVGDLVMLDPLSEESLLRTLQERFSRGEIYTYIGEVVISVNPYKPLPIYTPEKVEEYHNCNFFAVKPHIYAIADDAYRSLRDRDRDQCILITGESGAGKTEASKLVMSYVAAVSSKGEEVDKVKEQLLQSNPVLEAFGNAKTIRNDNSSRFGKYMDVEFDFKGDPLGGVISNYLLEKSRIVRHVKGERNFHIFYQLLAGGSAQLLQQLKLRPDCSHYGYLNHEKSVLPGMDDAANFRAMQDAMAIIGFAPAEVTALLEVTAVVLKLGNVKLSSCFQASGMEASSITEPRELQEISQLIGLDPSTLEQALCSRTVKVRDESVLTALSVSQGYYGRDALAKNIYSRLFDWLVNRINTSIQVKPGKQRKVMGVLDIYGFEIFQDNGFEQFIINYCNEKLQQIFILMTLKEEQEEYVREGIQWTPVEFFDNSIICDLIENSKVGILAMLDEECLRPGTVNEDTFITKLNQIFASHKRYESKETLNAKHVTDVSLPLRCFRIHHYAGKVTYNVTGFIEKNNDLLFRDLSQAMWAARHTLLRSLFPEGDPQRPSLKLPPTTGSQFKASVATLMKNLYSKNPNYIRCIKPNDTKTAMLFTPDLVLAQVRYLGLMENVRVRRAGYAFRQLYQPFLERYKMLSRKTWPRWTGGDREGAEVLLAELKFPPEELAYGHTKIFIRSPRTLFDLEKRRQQRVAELATLIQKMFRGWCCRKRYQLMRKSQILISAWFRGHMQRNRYKQMKRSVLLLQAYARGWKTRRMYRRYFRSDACTRLSNFIYRRMVQKYLMGLQKNLPPMAVLDRTWPPAPYKFLSDANQELKSIFYRWKCKKYREQLTPQQRAMLQAKLCASELFKDKKALYAQSLQQPFRGEYLGLTQNRKYQKLQAVAKDKLVMAEAVQKVNRANGKTVPRLLLLTTEHLVLADPKAAQPKMVLSLCDIQGASVSRFSDGLLALHLKETSTAGGKGDLLLVSPHLIELVTRLHQTLMDATAQALPLSIADQFSTRFPKGDVAVTVVESAKGGGDVPVCKKRGSHKMEILVH
chain 2: […]
B1: the binding result was “binds”.
